Data on one substance can be found in publication PMC8263569.

This assay concerns the target P622-G772A/S773A (ADGRG2-P622 with G772 and S773 of the ECL2 changed to alanine) (human) (UniProt Q8IZP9).
Sequence of UniProt Q8IZP9 (Q8IZP9 622-1017 G772A/S773A): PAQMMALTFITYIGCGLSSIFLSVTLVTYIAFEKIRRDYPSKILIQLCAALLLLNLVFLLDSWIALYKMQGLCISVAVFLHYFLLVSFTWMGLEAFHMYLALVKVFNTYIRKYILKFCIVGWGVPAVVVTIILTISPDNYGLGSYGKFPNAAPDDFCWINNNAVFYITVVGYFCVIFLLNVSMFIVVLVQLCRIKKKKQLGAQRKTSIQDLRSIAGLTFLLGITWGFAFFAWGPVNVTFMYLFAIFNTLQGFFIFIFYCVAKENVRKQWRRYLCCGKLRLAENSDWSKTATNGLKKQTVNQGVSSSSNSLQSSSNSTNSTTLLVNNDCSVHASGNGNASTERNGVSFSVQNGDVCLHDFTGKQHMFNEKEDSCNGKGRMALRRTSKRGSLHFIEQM

“synthetic P-15 (15-amino acid long Stachel peptide of ADGRG2)”: the CRE-luciferase reporter response to P-15, reduction against P622-CWI was 30% and the SRE-luciferase reporter response to P-15, reduction against P622-CWI came to 40%.
